The target in test [1] is amyloid precursor protein C99 (UniProt P05067). Description: SDS-PAGE with Western blot (SDS-stable oligomers); whole-cell expression samples of E. coli (0.8 OD600, autoinduction or IPTG), heated 4 min at 90°C in SDS dye, 4-20% gel, detected with antibody 6E10. (In general: In western blotting, separated proteins are transferred to a membrane and probed.)
The target is the same in test [2]. Briefly: SDS-PAGE with Western blot (SDS-stable oligomers); SEC fractions of Ni-purified C99 in E. coli lipid pentyl-inulin nanodiscs (detergent-free), heated in SDS dye, 4-20% gel, detected with antibody 6E10.

Values joined by “and” are separate entries in the source; they are usually repeats but may differ in a detail not shown here. Identical values can stand only once.

Regarding “amyloid precursor protein C99 (from UniProt P05067 672-770) (domain or fragment)”, the stoichiometry N was 2 and 3 in test [1]; 3 in test [2].

By stoichiometry N is commonly meant a count of units in the complex or per binding partner.

The record behind these values is publication PMC12363408.
